Each binder was assayed against DN-IV quality control recombinant protein (produced by the company) (dengue virus) (assay: BLI, antibody on AMC sensor).

| Binder | Kd [nM] | koff [s⁻¹] | kon [M⁻¹ s⁻¹] |
| --- | --- | --- | --- |
| Mutation 1-1 (antibody, V domains shown) VH: EVQLQQPGPELVKPGASVKMSCKASGYTFTSSVIHWVRQKPGQGLEWIGYMNPYNDGIKYNEKFIGKAILTSDKSSSTAYMQLSSLTSEDSAVYYCTKEGLFYVFDYWGQGTSVTVSS VL: QIVLTQSPAIMSASPGEKVTMTCSATSSLSYMHWYQQKSGTSPKRWIYDSSKLASGVPVRFSGSGSGTSYSLTISSMEAEDAATYFCQWWRSDLPTFGAGTKLELKR | 0.445 | 0.000181 | 407000 |
| Mutation 1-3 (antibody, V domains shown) VH: EVQLQQPGPELVKPGASVKMSCKASGYTFTSTVIHWVRQKPGQGLEWIGYMNPYNDGIKYNEKFIGKAILTSDKSSSTAYMQLSSLTSEDSAVYYCTREGLFYVFDYWGQGTSVTVSS VL: QIVLTQSPAIMSASPGEKVTMTCSATSSISYMHWYQQKSGTSPKRWIYDSSKLASGVPVRFSGSGSGTSYSLTISSMEAEDAATYFCQYWRSDLPTFGAGTKLELKR | 2.9 | 0.000119 | 41100 |
| Mutation 1-13 (antibody, V domains shown) VH: EVQLQQPGPELVKPGASVKMSCKASGYTFTSSVIHWVRQKPGQGLEWIGYMNPYNDGLKYNEKFIGKAILTSDKSSSTAYMQLSSLTSEDSAVYYCTREGLFYVFDYWGQGTSVTVSS VL: QIVLTQSPAIMSASPGEKVTMTCSATSSLSYMHWYQQKSGTSPKRWIYDSSKLASGVPVRFSGSGSGTSYSLTISSMEAEDAATYFCQWWRSDLPTFGAGTKLELKR | 3.47 | 0.000151 | 43500 |
| Mutation 1-11 (antibody, V domains shown) VH: EVQLQQPGPELVKPGASVKMSCKASGYTFTSYVIHWVRQKPGQGLEWIGYMNPYNDGLKYNEKFIGKAILTSDKSSSTAYMQLSSLTSEDSAVYYCTKEGLFYVFDYWGQGTSVTVSS VL: QIVLTQSPAIMSASPGEKVTMTCSATSSVSYMHWYQQKSGTSPKRWIYDSSKLASGVPVRFSGSGSGTSYSLTISSMEAEDAATYFCQQWRSDLPTFGAGTKLELKR | 0.725 | 0.0003 | 414000 |
| Mutation 1-2 (antibody, V domains shown) VH: EVQLQQPGPELVKPGASVKMSCKASGYTFTSYVIHWVRQKPGQGLEWIGYMNPYNDGLKYNEKFIGKAILTSDKSSSTAYMQLSSLTSEDSAVYYCTREGLFYVMDYWGQGTSVTVSS VL: QIVLTQSPAIMSASPGEKVTMTCSATSSVSYMHWYQQKSGTSPKRWIYDTSKLASGVPVRFSGSGSGTSYSLTISSMEAEDAATYFCQQWRSDLPTFGAGTKLELKR | 2.79 | 0.000116 | 41600 |
| Mutation 1-6 (antibody, V domains shown) VH: EVQLQQPGPELVKPGASVKMSCKASGYTFTSTVIHWVRQKPGQGLEWIGYMNPYNDGIKYNEKFIGKAILTSDKSSSTAYMQLSSLTSEDSAVYYCTKEGLFYVMDYWGQGTSVTVSS VL: QIVLTQSPAIMSASPGEKVTMTCSATSSISYMHWYQQKSGTSPKRWIYDTSKLASGVPVRFSGSGSGTSYSLTISSMEAEDAATYFCQYWRSDLPTFGAGTKLELKR | 0.499 | 0.000249 | 499000 |
| Mutation 1-10 (antibody, V domains shown) VH: EVQLQQPGPELVKPGASVKMSCKASGYTFTSSVIHWVRQKPGQGLEWIGYMNPYNDGIKYNEKFIGKAILTSDKSSSTAYMQLSSLTSEDSAVYYCTKEGLFYVMDYWGQGTSVTVSS VL: QIVLTQSPAIMSASPGEKVTMTCSATSSLSYMHWYQQKSGTSPKRWIYDTSKLASGVPVRFSGSGSGTSYSLTISSMEAEDAATYFCQWWRSDLPTFGAGTKLELKR | 2.65 | 0.000129 | 48700 |
| Mutation 1-12 (antibody, V domains shown) VH: EVQLQQPGPELVKPGASVKMSCKASGYTFTSTVIHWVRQKPGQGLEWIGYMNPYNDGIKYNEKFIGKAILTSDKSSSTAYMQLSSLTSEDSAVYYCTREGLFYVMDYWGQGTSVTVSS VL: QIVLTQSPAIMSASPGEKVTMTCSATSSISYMHWYQQKSGTSPKRWIYDTSKLASGVPVRFSGSGSGTSYSLTISSMEAEDAATYFCQYWRSDLPTFGAGTKLELKR | 2.86 | 0.000122 | 42600 |
| Mutation 1-8 (antibody, V domains shown) VH: EVQLQQPGPELVKPGASVKMSCKASGYTFTSYVIHWVRQKPGQGLEWIGYMNPYNDGIKYNEKFIGKAILTSDKSSSTAYMQLSSLTSEDSAVYYCTREGLFYVMDYWGQGTSVTVSS VL: QIVLTQSPAIMSASPGEKVTMTCSATSSVSYMHWYQQKSGTSPKRWIYDTSKLASGVPVRFSGSGSGTSYSLTISSMEAEDAATYFCQQWRSDLPTFGAGTKLELKR | 4.08 | 0.000172 | 42200 |
| Mutation 1-4 (antibody, V domains shown) VH: EVQLQQPGPELVKPGASVKMSCKASGYTFTSSVIHWVRQKPGQGLEWIGYMNPYNDGLKYNEKFIGKAILTSDKSSSTAYMQLSSLTSEDSAVYYCTKEGLFYVMDYWGQGTSVTVSS VL: QIVLTQSPAIMSASPGEKVTMTCSATSSLSYMHWYQQKSGTSPKRWIYDTSKLASGVPVRFSGSGSGTSYSLTISSMEAEDAATYFCQWWRSDLPTFGAGTKLELKR | 0.478 | 0.000234 | 490000 |

More lines, in order of falling Kd, values ahead:

| Kd [nM] | koff [s⁻¹] | kon [M⁻¹ s⁻¹] | Binder |
| --- | --- | --- | --- |
| 35.4 | 0.000162 | 4570 | WT 1-19 (antibody, V domains shown) VH: EVQLQQPGPELVKPGASVKMSCKASGYTVTSYVIHWVRQKPGQGLEWIGYMNAYNDGIKYNDKFIGKAILTSDKSSSTAYMQLSSLTSEDSAVYYCTKEGLFYVMDYWGQGTSVTVSS VL: QIVLTQSPAIMSASPGEKVTMTCSGTSSVSYMHWYQQKSGTSPKRWIYDSSKLASPVPVRFSGSGSGTSYSLTISSMEAEDAATYFCQQWRSVLPTFGAGTKLELKR |
| 0.66 | 0.000284 | 430000 | Mutation 1-9 (antibody, V domains shown) VH: EVQLQQPGPELVKPGASVKMSCKASGYTFTSTVIHWVRQKPGQGLEWIGYMNPYNDGLKYNEKFIGKAILTSDKSSSTAYMQLSSLTSEDSAVYYCTREGLFYVFDYWGQGTSVTVSS VL: QIVLTQSPAIMSASPGEKVTMTCSATSSISYMHWYQQKSGTSPKRWIYDSSKLASGVPVRFSGSGSGTSYSLTISSMEAEDAATYFCQYWRSDLPTFGAGTKLELKR |
| 0.652 | 0.00024 | 368000 | Mutation 1-7 (antibody, V domains shown) VH: EVQLQQPGPELVKPGASVKMSCKASGYTFTSSVIHWVRQKPGQGLEWIGYMNPYNDGLKYNEKFIGKAILTSDKSSSTAYMQLSSLTSEDSAVYYCTKEGLFYVFDYWGQGTSVTVSS VL: QIVLTQSPAIMSASPGEKVTMTCSATSSLSYMHWYQQKSGTSPKRWIYDSSKLASGVPVRFSGSGSGTSYSLTISSMEAEDAATYFCQWWRSDLPTFGAGTKLELKR |
| 0.508 | 0.000213 | 419000 | Mutation 1-5 (antibody, V domains shown) VH: EVQLQQPGPELVKPGASVKMSCKASGYTFTSYVIHWVRQKPGQGLEWIGYMNPYNDGIKYNEKFIGKAILTSDKSSSTAYMQLSSLTSEDSAVYYCTREGLFYVFDYWGQGTSVTVSS VL: QIVLTQSPAIMSASPGEKVTMTCSATSSVSYMHWYQQKSGTSPKRWIYDSSKLASGVPVRFSGSGSGTSYSLTISSMEAEDAATYFCQQWRSDLPTFGAGTKLELKR |
